Results reported in the RNAGym collection of RNA variant scans (doi:10.1073/pnas.2313332121).

B1: TPR t1 (parent)
chain: GACCAAUCUGCCCUCAGAGCUCGAGAACAUCUUCGGAUGCAGAGGAGGCAGGCUUCGGUGGCGCGAUAGCGCCAACGUCCUCAACCUCCAAUGCAUCCCACCACAUGAUGAUGCCUGAAGAGCCUUGGUUUUUUG

Variants of: B1
Assay: polymerase ribozyme fitness, log enrichment relative to wild type (log ratio); higher = more active; in vitro selection for triplet polymerase activity
How it was run: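 Fitness compares each genotype's enrichment to that of the wild type on a logarithmic scale, averaging replicates with inverse-variance weights. The logarithm is base 2. Enrichment came from Illumina sequencing of input and output libraries after one triplicate round of in vitro selection, which included frozen incubation at −7 °C, of PCR-built, transcribed mutant libraries of each subunit of a heterodimeric triplet polymerase ribozyme. Only genotypes with ≥10 input reads and ≥1 read per output were kept.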

| Variant | polymerase ribozyme fitness (log ratio) |
| --- | --- |
| GACCAAUCUGCCCUCAGAGCUCGAGAACAUCUUCGGAUGCAGAGGAGGCAGGCUUUGGUGACGCGAUAGCGCCAACGUCCUCAACCUCCAAUGCAUCCCACCACAUGAUGAUGCCUGAAGAGCCUUGGUUUUUUG | -4.41 |
| GACCAAUCUGCCCUCAGAGCUCGAGAACAUCUUCGGAUGCAGAGGAGGCAGGCUUCAGUGGCGCGAUAGCGCCAACGUCCUCACCCUCCAAUGCAUCCCACCACAUGAUGAUGCCUGAAGAGCCUUGGUUUUUUG | -1.76 |
| GACCAAUCUGCCCUCAGAGCUCGAGAACAUCUUCGGAUGCAGAGGAGGCAGGCUUCAGUAGCGCGAUAGCGCCAACGUCCUCAACCUCCAAUGCAUCCCACCACAUGAUGAUGCCUGAAGAGCCUUGGUUUUUUG | -0.384 |
| GACCAAUCUGCCCUCAGAGCUCGAGAACAUCUUCGGAUGCAGAGGAGGCAGGCUUUGGUGGCGCGAGAGCACCAACGUCUUCAACCUCCAAUGCAUCCCACCACAUGAUGAUGCCUGAACAGCCUUGGUUUUUUG | -6.12 |
| GACCAAUCUGCCCUCAGAGCUCGAGAACAUCUUCGGAUGCAGAGGAGGCAGGCUUUGGUGGCGCGAUAGCGCCAACGUCCUCAACCUCCAAUGCAGCCCAACACAUGAUGAUCCCUGAAGAGCCUUGGUUUUUUG | -3.97 |
| GACCAAUCUGCCCUCAGAGCUCGAGAACAUCUUCGGAUGCAGAGGAGGCAGGCUUCAGUGGCGCGAUAGCGCCAACGUCCUCAACCUCCAAUGCAUCCCACCAAAUGAUGAUGCCUGAAGAGCCUUGGUUUUUUG | -2.92 |
| GACCAAUCUGCCCUCAGAGCUCGAGAACAUCUUCGGAUGCAGAGGAGGCAGGCUUCAGUGGCGCGAUAGCGCCAACGUCCUCAACCUCCAAUGCAUCCCACCAUAUGAUGAUGCCUGAAGAGCCUUGGUUUUUUG | -0.961 |
| GACCAAUCUGCCCUCAGAGCUCGAGAACAUCUUCGGAUGCAGAGGAGGCAGGCUUUGGUGGCGCGAUAGCGCCAACGUCCUCAACCUCCAAUGCAUCCCACCACAAGAUGAUGCCUGAAGAGCCUUGGUUUUUUG | 0.0907 |
| GACCAAUCUGCCCUCAGAGCUCGAGAACAUCUUCGGAUGCAGAGGAGGCAGGCUUCAGUGGCGCGAUAGCGCCAACGUCCUCAACCUCCAAUGCCUCCCACCACAUGAUGAUGCCUGAAGAGCCUUGGUUUUUUG | -1.81 |
| GACCAAUCUGCCCUCAGAGCUCGAGAACAUCUUCGGAUGCAGAGGAGGCAGGCUUCAGUGGCGCGAUAGCGCCAACCUCCUCAACCUCCAAUGCAUCCCACCACAUGAUGAUGCCUGAAGAGCCUUGGUUUUUUG | -2.28 |
| GACCAAUCUGCCCUCAGAGCUCGAGAACAUCUUCGGAUGCAGAGGAGGCAGGCUUUGGUGUCGCGAUAGCGCCAACGUCCUCAACCUCCAAUACAUCCCACCACAUGAUGUUGCCCGAAGAGCCUUGGUUUUUUG | -4.78 |
| GACCAAUCUGCCCUCAGAGCUCGAGAACAUCUUCGGAUGCAGAGGAGGCAGGCUUUGGUGGCGCGAUAGCGCCAACGUCCUCAACCUCCAAUACAUUCCACCACAUGAUGAUGCCUGAAGAGCCUUGGAUUUUUG | -2.25 |
| GACCAAUCUGCCCUCAGAGCUCGAGAACAUCUUCGGAUGCAGAGGAGGCAGGCUUCAGUGGCACGAUAGCGCCAACGUCCUCAACCUCCAAUGCAUCCCACCACAUGAUGAUGCCUGAAGAGCCUUGGUUUUUUG | -2.04 |
| GACCAAUCUGCCCUCAGAGCUCGAGAACAUCUUCGGAUGCAGAGGAGGCAGGCUUCAGUGACGCGAUAGCGCCAACGUCCUCAACCUCCAAUGCAUCCCACCAUAUGAUGAUGCCUGAAGAGCCUUGGUUUUUUG | -0.114 |
| GACCAAUCUGCCCUCAGAGCUCGAGAACAUCUUCGGAUGCAGAGGAGGCAGGCUUUAGUGGCGCGAUAGCGCCAACGUGCUCAACCUCCAAUGCAUCCCACCACAUGAUGAUGCCUGAAGAGCCUUGGUUUUUUG | -1.48 |
| GACCAAUCUGCCCUCAGAGCUCGAGAACAUCUUCGGAUGCAGAGGAGGCAGGCUUUGGUGGCGCGAUAGCGCCAACGUCCUCAACCUCCAAUGCAUCCCACCACAUGAUGAUGCCUGAAGAGCCUUGGUUGUUUG | 0.127 |
| GACCAAUCUGCCCUCAGAGCUCGAGAACAUCUUCGGAUGCAGAGGAGGCAGGCUUUGGUGCCGCGAUAGCGCCAACGUCCUCAACCUCCAAUGCAUCCCACCACAUGAUGAUGCCUCAAGAGCCUUGGUUUUUUG | -4.62 |
| GACCAAUCUGCCCUCAGAGCUCGAGAACAUCUUCGGAUGCAGAGGAGGCAGGCUUUGGUGGCUCGAUAGCGCCAACGUCCUCAACCUCCAAUGCAUCCCACCACAUGAUGAUGCCUGAAGAGCCUUGGUUUUUUG | -4.18 |
| GACCAAUCUGCCCUCAGAGCUCGAGAACAUCUUCGGAUGCAGAGGAGGCAGGCUUUGGUGGCGCGAUAGCGCCAACGUCCUCAACCUCCAAUGCAUCCCACCACAUGAUGAUUCCUGAAAAGCCUUGGUUUUUUG | -3.03 |
| GACCAAUCUGCCCUCAGAGCUCGAGAACAUCUUCGGAUGCAGAGGAGGCAGGCUUUGGUGGCGCGAUAGCGCCAACAUCCUCAACCUCCAAUGUAUCCCACAACAUGAUGAUGCCUGAAGAGCCUUGGUUUUUUG | -2.87 |
| GACCAAUCUGCCCUCAGAGCUCGAGAACAUCUUCGGAUGCAGAGGAGGCAGGCUUCAGUGGCGCGAUAGCGCCAACGUCCUCAACCUCCAAUGCAUCCCACCACAUGAUGAUGCGUGAAGAGCCUUGGUUUUUUG | -2.25 |
